# Test results taken from publication PMC10937716.
# Tests used:
# Assay in all cases: cryo-EM structure; purified BAV virions (full and partial particles) in 1x PBS pH 7.4; icosahedral reconstruction and local reconstructions of the fivefold vertex, of RdRp and of VP9
# [1] = biological target: Banna virus (BAV) strain YN15-126-01 VP4, membrane penetration protein (spike) (Banna virus strain YN15-126-01)
# [2] = biological target: Banna virus (BAV) strain YN15-126-01 VP8, outer capsid protein (Banna virus strain YN15-126-01)
# [3] = biological target: Banna virus (BAV) strain YN15-126-01 VP9, receptor binding protein (spike) (Banna virus strain YN15-126-01)
substance,measurement,setting,value
"Banna virus (BAV) strain YN15-126-01 VP4, membrane penetration protein (spike) (natural protein)",stoichiometry N,[1],3
"Banna virus (BAV) strain YN15-126-01 VP8, outer capsid protein (natural protein)",stoichiometry N,[2],3
"Banna virus (BAV) strain YN15-126-01 VP9, receptor binding protein (spike) (natural protein)",stoichiometry N,[3],3
